Reference: article PMC2976697

Target: Helicobacter pylori CCUG 17874 L-asparaginase (Helicobacter pylori CCUG 17874) (UniProt O25424)
Assay: non-reducing SDS-PAGE with LC-MS/MS of the band; active Superdex 75 fractions of BCF, mixed with non-reducing SDS buffer, 10-12% SDS-PAGE; band at about 121 kDa cut out, trypsin digested and identified by LC-MS/MS

Substance “Helicobacter pylori CCUG 17874 L-asparaginase (from UniProt O25424 1-330) (enzyme)” has a stoichiometry N of 4.
